Legend:
[1] = molecular target: T1, Arylacetonitrilase from Alcaligenes faecalis (NitAF) (Alcaligenes faecalis, UniProt P20960); test: ammonia release, Michaelis-Menten; format: biochemical; conditions: 50 mM buffer pH 7.5, 10% methanol, 30 °C, 0.5-30 mM substrate
T1 construct: full-length with C-terminal His6 tag (tag kept), vector pTrc99A-derived, E. coli BL21(DE3), Ni-NTA; 1071 bp, 357 amino acids printed; subunit about 32 kDa by SDS-PAGE, native about 460 kDa (homo-oligomer)
Source text: (§1) ammonia release, Michaelis-Menten on Arylacetonitrilase from Alcaligenes faecalis (NitAF)

N#CCc1ccccc1 = test: ammonia release, Michaelis-Menten; format: biochemical, Alcaligenes faecalis; conditions: 50 mM buffer pH 7.5, 10% methanol, 30 °C, 0.5-30 mM substrate
Source text: as §1

T1 sequence (P20960 whole entry): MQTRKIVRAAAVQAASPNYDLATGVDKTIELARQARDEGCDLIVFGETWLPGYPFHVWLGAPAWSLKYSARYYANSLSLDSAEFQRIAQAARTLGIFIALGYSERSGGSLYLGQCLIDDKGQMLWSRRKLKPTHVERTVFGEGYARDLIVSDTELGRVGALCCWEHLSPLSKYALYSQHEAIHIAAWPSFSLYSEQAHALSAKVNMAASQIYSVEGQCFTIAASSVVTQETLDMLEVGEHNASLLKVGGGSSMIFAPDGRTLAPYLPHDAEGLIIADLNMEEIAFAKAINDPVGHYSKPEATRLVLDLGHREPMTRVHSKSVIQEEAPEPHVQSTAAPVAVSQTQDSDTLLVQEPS

Molecule	Km [1]	Km (N#CCc1ccccc1)	kcat (N#CCc1ccccc1)	kcat/Km (N#CCc1ccccc1)
N#CCc1ccccc1 [phenylacetonitrile]	860 ± 70 µM			
Arylacetonitrilase from Alcaligenes faecalis (NitAF) (Alcaligenes faecalis; F140A)		4200 ± 410 µM	15.6 ± 1.2 s⁻¹	3710 M⁻¹ s⁻¹
Arylacetonitrilase from Alcaligenes faecalis (NitAF) (Alcaligenes faecalis; F140G)		24100 ± 2200 µM		
Arylacetonitrilase from Alcaligenes faecalis (NitAF) (Alcaligenes faecalis; F140H)		890 ± 100 µM	63.5 ± 4.7 s⁻¹	71400 M⁻¹ s⁻¹
Arylacetonitrilase from Alcaligenes faecalis (NitAF) (Alcaligenes faecalis; F140L)		2130 ± 210 µM	38.8 ± 3.8 s⁻¹	18200 M⁻¹ s⁻¹
Arylacetonitrilase from Alcaligenes faecalis (NitAF) (Alcaligenes faecalis; F140V)		2950 ± 320 µM	25 ± 2.4 s⁻¹	8480 M⁻¹ s⁻¹
Arylacetonitrilase from Alcaligenes faecalis (NitAF) (Alcaligenes faecalis; F140W)		1450 ± 120 µM	143 ± 12 s⁻¹	98600 M⁻¹ s⁻¹

— PMC7660301, “Phe-140 Determines the Catalytic Efficiency of Arylacetonitrilase from Alcaligenes faecalis” (International Journal of Molecular Sciences, 2020)
